Assay results from patent US20170158755A1 (PROTHENA BIOSCIENCES, published 2017).
Blank lines part the entries; values can stand above or below the binder they belong to.

Assays:
[1] = molecular target: T1, LGde3, human LAMA4 G domain with LG3 deleted, displayed on 293 cells (human, UniProt Q16363 830-1821, limits assumed); assay: flow cytometry on 293 cells displaying LAMA4 G-domain variants; % binding
T1 construct: pDisplay construct on 293 cells; vector tags and anchor not written here; also called LGde3 (LG12); LGde3 (LG23)
T1 sequence: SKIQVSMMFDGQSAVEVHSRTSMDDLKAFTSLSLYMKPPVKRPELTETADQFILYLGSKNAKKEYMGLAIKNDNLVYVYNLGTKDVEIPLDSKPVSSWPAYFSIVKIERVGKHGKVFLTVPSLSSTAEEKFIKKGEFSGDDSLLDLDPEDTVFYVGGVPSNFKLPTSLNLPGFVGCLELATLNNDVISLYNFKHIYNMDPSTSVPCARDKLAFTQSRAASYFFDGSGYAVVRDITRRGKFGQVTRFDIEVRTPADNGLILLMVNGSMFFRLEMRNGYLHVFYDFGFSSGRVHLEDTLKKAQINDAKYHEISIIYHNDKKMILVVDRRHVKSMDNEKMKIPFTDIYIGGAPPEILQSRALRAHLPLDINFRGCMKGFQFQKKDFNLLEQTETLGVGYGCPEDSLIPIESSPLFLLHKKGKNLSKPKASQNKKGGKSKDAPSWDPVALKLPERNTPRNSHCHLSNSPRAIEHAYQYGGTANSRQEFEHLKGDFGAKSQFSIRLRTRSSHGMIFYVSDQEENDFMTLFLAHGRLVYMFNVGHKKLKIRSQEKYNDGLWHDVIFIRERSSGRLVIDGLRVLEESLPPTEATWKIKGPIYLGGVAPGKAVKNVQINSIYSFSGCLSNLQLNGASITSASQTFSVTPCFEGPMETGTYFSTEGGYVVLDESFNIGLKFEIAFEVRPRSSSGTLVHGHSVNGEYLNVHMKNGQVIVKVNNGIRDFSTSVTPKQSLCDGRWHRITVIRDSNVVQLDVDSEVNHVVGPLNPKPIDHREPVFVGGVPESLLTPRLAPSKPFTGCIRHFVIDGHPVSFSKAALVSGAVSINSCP
Source text: (§1) LGde1 has a full-length G domain (i.e., LG1-5) with LG1 deleted, LGde2 has a full-length G domain with LG2 deleted, and LGde3 has a full-length G domain with LG3 deleted. Recombinant MCAM-Fc protein was able to specifically bind 293 cells expressing LAMA4 variants LG1-5, LG1-3, and LGde 1 (LG23), but not 293 cells expressing LAMA 4 variants LG4-5, LGde2 (LG13), or LGde3 (LG12).

[2] = molecular target: T2, human LAMA4 LG4-5 modules displayed on 293 cells (human, UniProt Q16363 1453-1821); assay: as above
T2 construct: pDisplay construct on 293 cells; vector tags and anchor not written here
T2 sequence: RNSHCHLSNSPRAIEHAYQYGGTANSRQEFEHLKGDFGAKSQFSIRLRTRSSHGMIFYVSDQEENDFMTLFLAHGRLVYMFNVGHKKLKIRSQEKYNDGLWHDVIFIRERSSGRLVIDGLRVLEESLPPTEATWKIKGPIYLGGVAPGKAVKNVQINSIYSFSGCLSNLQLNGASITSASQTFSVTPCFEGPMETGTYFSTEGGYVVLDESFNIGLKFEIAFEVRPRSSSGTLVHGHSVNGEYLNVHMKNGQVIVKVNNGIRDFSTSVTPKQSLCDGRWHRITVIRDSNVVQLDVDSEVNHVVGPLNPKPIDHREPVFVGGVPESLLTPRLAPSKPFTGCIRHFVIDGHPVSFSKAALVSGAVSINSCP
Source text: as §1

[3] = molecular target: T3, LGde2, human LAMA4 G domain with LG2 deleted, displayed on 293 cells (human, UniProt Q16363 830-1821, limits assumed); assay: as above
T3 construct: pDisplay construct on 293 cells; vector tags and anchor not written here; also called LGde2 (LG13)
T3 sequence: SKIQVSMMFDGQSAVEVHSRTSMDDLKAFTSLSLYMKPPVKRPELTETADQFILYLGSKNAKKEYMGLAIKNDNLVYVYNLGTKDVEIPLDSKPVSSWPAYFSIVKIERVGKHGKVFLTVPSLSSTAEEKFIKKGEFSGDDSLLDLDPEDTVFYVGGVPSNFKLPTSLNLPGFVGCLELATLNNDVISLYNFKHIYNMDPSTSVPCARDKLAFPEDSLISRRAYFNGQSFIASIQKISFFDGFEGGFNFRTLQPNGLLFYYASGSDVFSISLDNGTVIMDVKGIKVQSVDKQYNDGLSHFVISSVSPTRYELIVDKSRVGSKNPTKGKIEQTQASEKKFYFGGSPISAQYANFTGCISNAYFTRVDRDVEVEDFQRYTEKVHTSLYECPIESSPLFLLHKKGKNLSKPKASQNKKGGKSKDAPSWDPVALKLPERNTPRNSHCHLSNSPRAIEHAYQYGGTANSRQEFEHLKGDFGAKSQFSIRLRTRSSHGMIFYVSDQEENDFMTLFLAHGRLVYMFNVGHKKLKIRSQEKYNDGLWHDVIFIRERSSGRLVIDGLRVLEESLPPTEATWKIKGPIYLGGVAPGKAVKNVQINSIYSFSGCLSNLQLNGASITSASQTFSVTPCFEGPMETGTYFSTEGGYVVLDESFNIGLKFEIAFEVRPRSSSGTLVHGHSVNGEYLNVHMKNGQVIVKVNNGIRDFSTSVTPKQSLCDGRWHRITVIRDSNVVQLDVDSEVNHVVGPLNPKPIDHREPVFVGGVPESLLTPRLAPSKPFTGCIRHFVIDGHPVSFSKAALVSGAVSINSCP
Source text: as §1

recombinant laminin 411 = recombinant laminin 411 (human, UniProt P07942 22-1786; P11047 34-1609, limits assumed); assay: cell-based or functional assay
recombinant laminin 411, sequence (chain, as listed by the source limits assumed, chain 1 of 3): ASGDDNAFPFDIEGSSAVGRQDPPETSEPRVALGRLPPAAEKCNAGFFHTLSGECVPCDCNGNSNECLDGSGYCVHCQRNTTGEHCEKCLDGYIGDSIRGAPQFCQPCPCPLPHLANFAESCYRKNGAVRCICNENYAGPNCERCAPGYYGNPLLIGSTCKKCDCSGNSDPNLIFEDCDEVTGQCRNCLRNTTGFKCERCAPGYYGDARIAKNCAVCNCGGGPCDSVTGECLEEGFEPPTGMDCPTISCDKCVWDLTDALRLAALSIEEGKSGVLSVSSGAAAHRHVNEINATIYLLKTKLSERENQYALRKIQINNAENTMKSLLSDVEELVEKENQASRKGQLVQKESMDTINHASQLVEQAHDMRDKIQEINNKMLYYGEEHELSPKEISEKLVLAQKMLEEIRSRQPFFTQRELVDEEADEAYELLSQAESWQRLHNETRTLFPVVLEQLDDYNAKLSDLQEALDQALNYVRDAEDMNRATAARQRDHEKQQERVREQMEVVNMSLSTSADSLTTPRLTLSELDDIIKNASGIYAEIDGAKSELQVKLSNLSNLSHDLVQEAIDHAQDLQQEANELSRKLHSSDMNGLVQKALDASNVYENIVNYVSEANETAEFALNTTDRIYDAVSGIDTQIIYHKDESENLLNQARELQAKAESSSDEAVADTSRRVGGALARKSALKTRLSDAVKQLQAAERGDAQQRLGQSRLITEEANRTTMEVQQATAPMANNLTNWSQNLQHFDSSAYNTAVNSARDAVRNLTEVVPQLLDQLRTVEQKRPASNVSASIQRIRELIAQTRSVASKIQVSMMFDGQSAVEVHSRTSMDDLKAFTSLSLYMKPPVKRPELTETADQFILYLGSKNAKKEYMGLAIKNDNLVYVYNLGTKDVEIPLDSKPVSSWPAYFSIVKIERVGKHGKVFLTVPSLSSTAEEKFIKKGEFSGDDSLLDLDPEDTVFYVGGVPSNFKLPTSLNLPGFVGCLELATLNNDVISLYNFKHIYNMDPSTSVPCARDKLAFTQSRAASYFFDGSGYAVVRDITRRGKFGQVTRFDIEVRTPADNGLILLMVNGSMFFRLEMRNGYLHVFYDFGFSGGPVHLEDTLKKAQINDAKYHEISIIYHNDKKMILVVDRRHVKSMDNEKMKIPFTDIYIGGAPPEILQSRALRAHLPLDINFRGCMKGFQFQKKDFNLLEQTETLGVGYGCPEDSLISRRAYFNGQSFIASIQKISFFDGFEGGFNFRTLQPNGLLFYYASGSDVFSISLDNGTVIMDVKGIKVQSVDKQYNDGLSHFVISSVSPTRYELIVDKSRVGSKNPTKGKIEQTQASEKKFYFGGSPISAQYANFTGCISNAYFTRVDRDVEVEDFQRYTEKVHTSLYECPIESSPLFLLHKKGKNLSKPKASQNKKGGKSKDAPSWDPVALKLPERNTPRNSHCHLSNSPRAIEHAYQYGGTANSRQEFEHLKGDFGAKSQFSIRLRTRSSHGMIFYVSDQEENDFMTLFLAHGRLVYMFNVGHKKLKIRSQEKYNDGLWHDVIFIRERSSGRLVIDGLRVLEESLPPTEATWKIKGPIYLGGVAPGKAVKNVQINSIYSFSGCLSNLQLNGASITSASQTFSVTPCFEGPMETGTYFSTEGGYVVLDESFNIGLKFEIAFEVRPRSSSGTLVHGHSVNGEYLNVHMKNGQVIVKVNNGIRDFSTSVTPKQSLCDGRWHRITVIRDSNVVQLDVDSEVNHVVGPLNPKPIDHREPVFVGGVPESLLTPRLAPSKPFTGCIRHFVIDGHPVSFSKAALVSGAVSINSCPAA
recombinant laminin 411, sequence (P07942 22-1786 limits assumed, chain 2 of 3): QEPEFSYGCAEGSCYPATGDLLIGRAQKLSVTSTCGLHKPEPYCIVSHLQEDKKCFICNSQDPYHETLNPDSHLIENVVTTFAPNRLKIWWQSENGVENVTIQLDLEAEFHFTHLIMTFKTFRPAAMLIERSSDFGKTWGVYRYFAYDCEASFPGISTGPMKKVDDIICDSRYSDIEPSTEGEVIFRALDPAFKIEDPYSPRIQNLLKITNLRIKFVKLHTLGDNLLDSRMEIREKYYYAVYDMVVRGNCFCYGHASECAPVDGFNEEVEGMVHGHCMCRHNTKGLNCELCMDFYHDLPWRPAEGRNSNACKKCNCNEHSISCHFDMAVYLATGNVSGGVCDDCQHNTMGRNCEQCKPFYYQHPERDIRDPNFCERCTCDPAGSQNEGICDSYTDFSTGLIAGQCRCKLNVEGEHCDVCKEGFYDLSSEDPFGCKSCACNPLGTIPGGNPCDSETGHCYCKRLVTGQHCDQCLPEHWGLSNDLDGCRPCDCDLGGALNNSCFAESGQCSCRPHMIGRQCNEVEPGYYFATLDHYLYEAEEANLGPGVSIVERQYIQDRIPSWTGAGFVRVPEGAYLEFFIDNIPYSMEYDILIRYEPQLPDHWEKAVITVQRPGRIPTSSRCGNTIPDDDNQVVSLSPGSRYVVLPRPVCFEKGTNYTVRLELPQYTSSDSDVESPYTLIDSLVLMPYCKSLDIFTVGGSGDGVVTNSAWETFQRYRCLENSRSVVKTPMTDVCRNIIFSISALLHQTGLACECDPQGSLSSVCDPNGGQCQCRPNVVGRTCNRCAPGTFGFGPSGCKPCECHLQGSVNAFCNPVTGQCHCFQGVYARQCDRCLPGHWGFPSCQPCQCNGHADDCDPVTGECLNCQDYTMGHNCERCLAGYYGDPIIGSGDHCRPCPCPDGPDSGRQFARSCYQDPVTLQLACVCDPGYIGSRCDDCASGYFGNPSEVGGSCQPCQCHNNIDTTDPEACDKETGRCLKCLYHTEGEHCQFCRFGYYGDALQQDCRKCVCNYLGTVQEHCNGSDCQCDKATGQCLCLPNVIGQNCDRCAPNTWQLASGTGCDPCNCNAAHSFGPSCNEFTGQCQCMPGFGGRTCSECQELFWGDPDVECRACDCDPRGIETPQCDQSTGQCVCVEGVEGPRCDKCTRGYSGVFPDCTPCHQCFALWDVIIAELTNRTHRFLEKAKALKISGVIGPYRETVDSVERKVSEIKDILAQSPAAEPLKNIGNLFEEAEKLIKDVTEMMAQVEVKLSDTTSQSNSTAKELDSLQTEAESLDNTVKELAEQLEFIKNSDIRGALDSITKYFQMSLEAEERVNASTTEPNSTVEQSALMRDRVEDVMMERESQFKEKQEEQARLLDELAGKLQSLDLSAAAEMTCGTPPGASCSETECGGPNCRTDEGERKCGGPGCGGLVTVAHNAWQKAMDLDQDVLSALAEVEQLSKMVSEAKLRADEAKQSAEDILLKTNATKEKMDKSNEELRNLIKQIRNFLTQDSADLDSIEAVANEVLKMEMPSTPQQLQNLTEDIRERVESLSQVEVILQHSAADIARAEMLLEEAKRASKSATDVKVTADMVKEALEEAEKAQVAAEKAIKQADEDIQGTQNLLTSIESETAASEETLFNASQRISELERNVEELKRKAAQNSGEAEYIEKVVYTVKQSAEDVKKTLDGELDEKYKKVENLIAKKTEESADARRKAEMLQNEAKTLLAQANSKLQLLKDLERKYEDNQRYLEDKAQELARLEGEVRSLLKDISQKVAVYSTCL
recombinant laminin 411, sequence (P11047 34-1609 limits assumed, chain 3 of 3): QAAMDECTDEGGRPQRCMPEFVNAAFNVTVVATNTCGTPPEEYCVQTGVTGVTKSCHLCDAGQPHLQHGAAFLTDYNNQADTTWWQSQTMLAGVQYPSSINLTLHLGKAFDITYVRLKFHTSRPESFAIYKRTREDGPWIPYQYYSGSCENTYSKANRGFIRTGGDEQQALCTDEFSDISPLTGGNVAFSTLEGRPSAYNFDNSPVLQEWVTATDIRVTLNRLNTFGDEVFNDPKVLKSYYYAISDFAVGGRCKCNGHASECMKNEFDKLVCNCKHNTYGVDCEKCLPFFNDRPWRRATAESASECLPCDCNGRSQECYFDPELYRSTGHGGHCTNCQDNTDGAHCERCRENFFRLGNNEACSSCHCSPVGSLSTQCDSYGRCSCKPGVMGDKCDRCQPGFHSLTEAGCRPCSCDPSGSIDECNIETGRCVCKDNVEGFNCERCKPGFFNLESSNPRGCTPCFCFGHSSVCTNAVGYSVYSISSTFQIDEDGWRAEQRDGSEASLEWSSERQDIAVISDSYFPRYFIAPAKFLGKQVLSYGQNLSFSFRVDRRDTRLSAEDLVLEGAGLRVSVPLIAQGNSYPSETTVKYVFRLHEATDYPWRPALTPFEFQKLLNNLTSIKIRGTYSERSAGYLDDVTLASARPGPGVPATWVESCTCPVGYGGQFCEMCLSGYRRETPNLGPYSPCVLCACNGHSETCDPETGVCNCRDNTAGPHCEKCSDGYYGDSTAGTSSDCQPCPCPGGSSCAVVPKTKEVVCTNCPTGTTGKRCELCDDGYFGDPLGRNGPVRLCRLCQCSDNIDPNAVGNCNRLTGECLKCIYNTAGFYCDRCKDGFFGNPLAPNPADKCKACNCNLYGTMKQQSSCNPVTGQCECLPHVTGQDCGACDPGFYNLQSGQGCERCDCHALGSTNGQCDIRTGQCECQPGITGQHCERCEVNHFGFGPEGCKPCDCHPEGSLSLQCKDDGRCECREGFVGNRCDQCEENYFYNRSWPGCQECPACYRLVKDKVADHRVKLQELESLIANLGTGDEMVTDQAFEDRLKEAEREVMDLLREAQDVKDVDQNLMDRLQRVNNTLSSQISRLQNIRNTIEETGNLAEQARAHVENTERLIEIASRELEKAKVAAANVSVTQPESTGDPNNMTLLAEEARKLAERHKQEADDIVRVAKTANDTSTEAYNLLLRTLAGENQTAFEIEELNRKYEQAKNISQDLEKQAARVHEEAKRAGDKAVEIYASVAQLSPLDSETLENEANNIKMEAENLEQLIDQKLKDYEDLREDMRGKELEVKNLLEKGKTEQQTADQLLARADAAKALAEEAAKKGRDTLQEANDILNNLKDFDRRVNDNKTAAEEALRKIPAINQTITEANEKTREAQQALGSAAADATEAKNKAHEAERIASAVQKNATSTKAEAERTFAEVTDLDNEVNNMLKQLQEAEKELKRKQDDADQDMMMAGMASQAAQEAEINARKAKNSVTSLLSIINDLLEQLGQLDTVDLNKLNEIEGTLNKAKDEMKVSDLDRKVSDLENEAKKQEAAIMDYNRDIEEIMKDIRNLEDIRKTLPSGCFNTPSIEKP

binding result [1]: no binding
binding result [2]: no binding
binding result [3]: no binding
laminin-411-induced pAkt activation (pAkt/Akt ratio by immunoblot) in WM266.4 cells, 20 ug/ml antibody (recombinant laminin 411): ~50 % inhibition
B1: mouse monoclonal antibody 19C12 (antibody, V domains shown)
VH: QVQLQQSGAELVKPGASVKISCKASGYAFSTYWMNWVKQRPGEGLEWIGQIYPGDGDTNYNGKFKGKATLTADKSSSTAYMQLSSLTSEDSAVYFCARSDGYYDYWGQGTTLTVSS
VL: NIVLTQSPASLAVSLGQRATISCRASESVDSYGTSFMHWYQQKPGQPPKLLICLASSLESGVPARFSGSGSRTDFTLTIDPVEADDAATYYCQQNNEDPPTFGAGTKLELKR
notes: Mouse hybridoma antibody; Mouse IgG2b was used as its isotype control; also called m19C12

binding result [1]: no binding
binding result [3]: no binding
B2: mouse monoclonal antibody 1C1 (antibody, V domains shown)
VH: QVQLQQSGAELARPGASVKLSCKASGYTFTNYGISWVKQRTGQGLEWIGAIYPRSGNTYYNEKFKGKATLTADKSSSTAYMELRSLTSEDSAVYFCARERDYGSSYALDYWGQGTSVTVSS
VL: DIVMTQSQKFMSTSVGDRVSVTCKASHNVGTNVAWYQQKPGQSPKPLIYSASYRYSGVPDRFTGSGSGTDFTLTISNVQSEDLADYFCQQFNNYPYTFGGGTKLEIKR
notes: version 1 is written here
